PMC10307626, “Structural basis of NINJ1-mediated plasma membrane rupture in cell death” (Nature, 2023)
Changes are numbered by the printed parent chain.

B1: hNINJ1 Q91A (natural protein, human, UniProt Q92982 1-152, looked up)
chain: MDSGTEEYELNGGLPPGTPGSPDASPARWGWRHGPINVNHYASKKSAAESMLDIALLMANASQLKAVVEQGPSFAFYVPLVVLISISLVLAIGVGVLLIFLVKYDLNNPAKHAKLDFLNNLATGLVFIIVVVNIFITAFGVQKPLMDMAPQQ
notes: ninjurin-1 (NINJ1), human, UniProt Q92982, residues 1–152, point mutant; source: E. coli Rosetta2 (DE3), purified (DDM, Ni-NTA, TEV cleavage); not shown: 8×His, N-terminal, cleaved
B2: hNINJ1 V82W (natural protein, human, UniProt Q92982 1-152, looked up)
chain: B1 chain with V82W, A91Q
notes: as for B1
B3: hNINJ1 A138L (natural protein, human, UniProt Q92982 1-152, looked up)
chain: B1 chain with A91Q, A138L
notes: as for B1
B4: hNINJ1 I84F (natural protein, human, UniProt Q92982 1-152, looked up)
chain: B1 chain with I84F, A91Q
notes: as for B1
B5: hNINJ1 L121F (natural protein, human, UniProt Q92982 1-152, looked up)
chain: B1 chain with A91Q, L121F
notes: as for B1
B6: hNINJ1 T123L (natural protein, human, UniProt Q92982 1-152, looked up)
chain: B1 chain with A91Q, T123L
notes: as for B1
B7: hNINJ1 I134F (natural protein, human, UniProt Q92982 1-152, looked up)
chain: B1 chain with A91Q, I134F
notes: as for B1
B8: hNINJ1 G95L (natural protein, human, UniProt Q92982 1-152, looked up)
chain: B1 chain with A91Q, G95L
notes: as for B1
B9: hNINJ1 K45Q (natural protein, human, UniProt Q92982 1-152, looked up)
chain: B1 chain with K45Q, A91Q
notes: as for B1
B10: full-length, wild-type human NINJ1 (ninjurin-1), residues 1–152 (natural protein, UniProt Q92982 1-152, looked up)
chain: B1 chain with A91Q
notes: ninjurin-1 (NINJ1), human, UniProt Q92982, residues 1–152; residues 39–141 are modelled in the filament structure; residues of the site probably remain at the N-terminus after cleavage; Forms filaments of no fixed number of subunits; also called hNINJ1; hNINJ1(1–152); source: E. coli Rosetta2 (DE3), extracted from membranes with DDM, purified (Ni-NTA, TEV cleavage, SEC on Superose 6); not shown: …
B11: hNINJ1 A47L (natural protein, human, UniProt Q92982 1-152, looked up)
chain: B1 chain with A47L, A91Q
notes: as for B1
B12: hNINJ1 L121W (natural protein, human, UniProt Q92982 1-152, looked up)
chain: B1 chain with A91Q, L121W
notes: as for B1
B13: hNINJ1 D53A (natural protein, human, UniProt Q92982 1-152, looked up)
chain: B1 chain with D53A, A91Q
notes: as for B1
B14: hNINJ1 V82F (natural protein, human, UniProt Q92982 1-152, looked up)
chain: B1 chain with V82F, A91Q
notes: as for B1
B15: hNINJ1∆1–36 (domain or fragment, human, UniProt Q92982 37-152, looked up)
chain: NVNHYASKKSAAESMLDIALLMANASQLKAVVEQGPSFAFYVPLVVLISISLVLQIGVGVLLIFLVKYDLNNPAKHAKLDFLNNLATGLVFIIVVVNIFITAFGVQKPLMDMAPQQ
notes: ninjurin-1 (NINJ1), human, UniProt Q92982, printed as hNINJ1∆1–36 (residues 1–36 removed); probably as the wild type (8×His and TEV site, cleaved); also called truncated hNINJ1; source: E. coli Rosetta2 (DE3), purified

Biological target: the molecule itself
Experiment: negative-stain TEM; 0.02 mg/ml purified protein on glow-discharged carbon-coated copper grids, 2% uranyl acetate; single-point mutants taken directly after TEV cleavage of the 8×His tag

Binding result, binds:
B1
B2
B3
B4
B5
B6
B7
B8
B9
B10
B11
B12
B13
B14
B15
